In the test the target is OM14 assembled in the outer membrane of isolated mitochondria (S. cerevisiae (endogenous in yeast)) (UniProt P38325). Description: co-sedimentation; 10 μg purified yeast ribosomes with 25 μg highly purified mitochondria (OM14^+ or OM14Δ, from NAC-deleted cells), 5 min at room temperature in MA buffer, 10,000 g; Rpl3 in the pellet normalised to Tom20.
UniProt P38325, sequence (P38325 whole entry): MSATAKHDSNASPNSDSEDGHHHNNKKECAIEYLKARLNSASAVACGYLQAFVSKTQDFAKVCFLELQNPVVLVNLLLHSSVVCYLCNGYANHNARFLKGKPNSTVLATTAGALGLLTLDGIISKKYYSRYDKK

“yeast cytosolic ribosomes (from UniProt P14126 1-387) (complex)”: the fold ribosomal association, mitochondria with OM14 over OM14Δ mitochondria was more than 2 fold.

For the origin of these results see PMC4268710.
